We go through 6 sequences from the supplement of paper PMC11246515.

A short description of the series: total protein half-life in vivo (active degradation + dilution); higher = more stable protein.
The mark [1] stands for this setting: E. coli NCM3722 delta-clpP delta-lon delta-hslV, growth: N-lim chemostat, doubling time 6 h.
Setting [2] is: E. coli NCM3722 delta-clpP, growth: N-lim chemostat, doubling time 6 h.
[3] abbreviates: E. coli NCM3722 delta-hslV, growth: N-lim chemostat, doubling time 6 h.
Where [4] appears, read: E. coli NCM3722 delta-lon, growth: N-lim chemostat, doubling time 6 h.
The mark [5] stands for this setting: E. coli NCM3722 delta-smpB, growth: N-lim chemostat, doubling time 6 h.
Setting [6] is: wild type E. coli NCM3722, growth: C-lim chemostat, doubling time 3 h.
Where [7] appears, read: wild type E. coli NCM3722, growth: C-lim chemostat, doubling time 6 h.
[8] abbreviates: wild type E. coli NCM3722, growth: C-lim chemostat, doubling time 12 h.
Setting [9] is: wild type E. coli NCM3722, growth: N-lim chemostat, doubling time 6 h.
The mark [10] stands for this setting: wild type E. coli NCM3722, growth: N-lim chemostat, doubling time 12 h.
[11] abbreviates: wild type E. coli NCM3722, growth: P-lim chemostat, doubling time 6 h.
The mark [12] stands for this setting: wild type E. coli NCM3722, growth: P-lim chemostat, doubling time 12 h.

± gives the standard deviation of the averaged measurements.

For “MKRKLFWICAVAMGMSAFPSFMTQATPATQPLINAEPAVAAQTEQNPQVGQVMPGVQGADAPVVAQNGPSRDVKLTFAQIAPPPGSMVLRGINPNGSIEFGMRSDEVVTKAMLNLEYTPSPSLLPVQSQLKVYLNDELMGVLPVTKEQLGKKTLAQMPINPLFISDFNRVRLEFVGHYQDVCEKPASTTLWLDVGRSSGLDLTYQTLNVKNDLSHFPVPFFDPSDNRTNTLPMVFAGAPDVGLQQASAIVASWFGSRSGWRGQNFPVLYNQLPDRNAIVFATNDKRPDFLRDHPAVKAPVIEMINHPQNPYVKLLVVFGRDDKDLLQAAKGIAQGNILFRGESVVVNEVKPLLPRKPYDAPNWVRTDRPVTFGELKTYEEQLQSSGLEPAAINVSLNLPPDLYLMRSTGIDMDINYRYTMPPVKDSSRMDISLNNQFLQSFNLSSKQEANRLLLRIPVLQGLLDGKTDVSIPALKLGATNQLRFDFEYMNPMPGGSVDNCITFQPVQNHVVIGDDSTIDFSKYYHFIPMPDLRAFANAGFPFSRMADLSQTITVMPKAPNEAQMETLLNTVGFIGAQTGFPAINLTVTDDGSTIQGKDADIMIIGGIPDKLKDDKQIDLLVQATESWVKTPMRQTPFPGIVPDESDRAAETRSTLTSSGAMAAVIGFQSPYNDQRSVIALLADSPRGYEMLNDAVNDSGKRATMFGSVAVIRESGINSLRVGDVYYVGHLPWFERVWYALANHPILLAVLAAISVILLAWVLWRLLRIISRRRLNPDNE”, the “total protein half-life in vivo” value by setting is: under setting [1], 6.42 ± 0.47 h; under setting [2], 7.04 ± 0.67 h; under setting [3], 6.15 ± 0.65 h; under setting [4], 6.28 ± 0.15 h; under setting [5], 5.904 ± 0.057 h; under setting [6], 3.17 ± 0.033 h. Besides, the “total protein half-life in vivo” value came to 6.1 ± 0.11 h under setting [7]; 10.7 ± 1.2 h under setting [8]; 5.8 ± 0.2 h under setting [9]; 11.4 ± 0.44 h under setting [10]; 6.3 ± 0.39 h under setting [11]; 11.8 ± 0.31 h under setting [12].

In the case of “MQKLINSVQNYAWGSKTALTELYGMENPSSQPMAELWMGAHPKSSSRVQNAAGDIVSLRDVIESDKSTLLGEAVAKRFGELPFLFKVLCAAQPLSIQVHPNKHNSEIGFAKENAAGIPMDAAERNYKDPNHKPELVFALTPFLAMNAFREFSEIVSLLQPVAGAHPAIAHFLQQPDAERLSELFASLLNMQGEEKSRALAILKSALDSQQGEPWQTIRLISEFYPEDSGLFSPLLLNVVKLNPGEAMFLFAETPHAYLQGVALEVMANSDNVLRAGLTPKYIDIPELVANVKFEAKPANQLLTQPVKQGAELDFPIPVDDFAFSLHDLSDKETTISQQSAAILFCVEGDATLWKGSQQLQLKPGESAFIAANESPVTVKGHGRLARVYNKL”, the “total protein half-life in vivo” value came out at 4.5 ± 0.45 h under setting [1]; 4.28 ± 0.05 h under setting [2]; 5.01 ± 0.19 h under setting [3]; 4.64 ± 0.25 h under setting [4]; 4.506 ± 0.036 h under setting [5]; 3.03 ± 0.032 h under setting [6]. For the same sequence, the “total protein half-life in vivo” value reads like this: under setting [7], 5.48 ± 0.18 h; under setting [8], 10.7 ± 0.47 h; under setting [9], 4.46 ± 0.15 h; under setting [10], 7.24 ± 0.34 h; under setting [11], 5.71 ± 0.53 h; under setting [12], 10.9 ± 0.41 h.

On to “MKKLFIQFYLLLFVCFLVMSLLVGLVYKFTAERAGKQSLDDLMNSSLYLMRSELREIPPHDWGKTLKEMDLNLSFDLRVEPLSKYHLDDISMHRLRGGEIVALDDQYTFLQRIPRSHYVLAVGPVPYLYYLHQMRLLDIALIAFIAISLAFPVFIWMRPHWQDMLKLEAAAQRFGDGHLNERIHFDEGSSFERLGVAFNQMADNINALIASKKQLIDGIAHELRTPLVRLRYRLEMSDNLSAAESQALNRDISQLEALIEELLTYARLDRPQNELHLSEPDLPLWLSTHLADIQAVTPDKTVRIKTLVQGHYAALDMRLMERVLDNLLNNALRYCHSTVETSLLLSGNRATLIVEDDGPGIAPENREHIFEPFVRLDPSRDRSTGGCGLGLAIVHSIALAMGGTVNCDTSELGGARFSFSWPLWHNIPQFTSA”, for which the “total protein half-life in vivo” value came to 6.14 ± 0.51 h under setting [3]; 6.03 ± 0.18 h under setting [5]; 2.755 ± 0.017 h under setting [6]; 6.26 h under setting [7]; 12.5 ± 4.9 h under setting [8]; 6.3 h under setting [9]. Moreover, the “total protein half-life in vivo” value is, setting by setting: under setting [10], 10.1 ± 2.2 h; under setting [11], 5.97 ± 0.2 h; under setting [12], 11.4 ± 0.61 h.

Consider “MRRFFWLVAAALLLAGCAGEKGIVEKEGYQLDTRRQAQAAYPRIKVLVIHYTADDFDSSLATLTDKQVSSHYLVPAVPPRYNGKPRIWQLVPEQELAWHAGISAWRGATRLNDTSIGIELENRGWQKSAGVKYFAPFEPAQIQALIPLAKDIIARYHIKPENVVAHADIAPQRKDDPGPLFPWQQLAQQGIGAWPDAQRVNFYLAGRAPHTPVDTASLLELLARYGYDVKPDMTPREQRRVIMAFQMHFRPTLYNGEADAETQAIAEALLEKYGQD”, for which the “total protein half-life in vivo” value runs as follows: under setting [1], 6.4 ± 0.46 h; under setting [2], 6.3559 ± 0.0044 h; under setting [3], 6.75 ± 0.56 h; under setting [4], 7.41 ± 0.34 h; under setting [5], 5.75 ± 0.39 h; under setting [6], 3.0599 ± 3.5e-05 h. Moreover, the “total protein half-life in vivo” value is, setting by setting: under setting [8], 11.2 ± 0.38 h; under setting [10], 12.4 ± 0.43 h; under setting [11], 5.63 ± 1.1 h; under setting [12], 13.9 ± 1.3 h.

Regarding “MGLCSRYKSLTCNSCSMHCQIMPEESPRLQYCANSCFCMWPEESSYFNRGVVEGILTKNHNARLSGYIFVDFSVSFLRLFLEKDWIDYLASTDMGIVLVSDRNMQSLANYWRKHNSAISAVIYNDDGLDVANEKIRQLFIGRYLSFTGGNTLTQMEFTIMGYMVSGYNPYQIAEVLDMDIRSIYAYKQRIEKRMGGKINELFIRSHSVQH”, the “total protein half-life in vivo” value under setting [1] turned out to be 4.5 ± 2.7 h.

Take “MTRPVTLSEPHFSQHTLNKYASLMAQGNGYLGLRASHEEDYTRQTRGMYLAGLYHRAGKGEINELVNLPDVVGMEIAINGEVFSLSHEAWQRELDFASGELRRNVVWRTSNGSGYTIASRRFVSADQLPLIALEITITPLDADASVLISTGIDATQTNHGRQHLDETQVRVFGQHLMQGSYTTQDGRSDVAISCCCKVSGDVQQCYTAKERRLLQHTSAQLHAGETMTLQKLVWIDWRDDRQAALDEWGSASLRQLEMCAQQSYDQLLAASTENWRQWWQKRRITVNGGEAHDQQALDYALYHLRIMTPAHDERSSIAAKGLTGEGYKGHVFWDTEVFLLPFHLFSDPTVARSLLRYRWHNLPGAQEKARRNGWQGALFPWESARSGEEETPEFAAINIRTGLRQKVASAQAEHHLVADIAWAVIQYWQTTGDESFIAHEGMALLLETAKFWISRAVRVNDRLEIHDVIGPDEYTEHVNNNAYTSYMARYNVQQALNIARQFGCSDDAFIHRAEMFLKELWMPEIQPDGVLPQDDSFMAKPAINLAKYKAAAGKQTILLDYSRAEVNEMQILKQADVVMLNYMLPEQFSAASCLANLQFYEPRTIHDSSLSKAIHGIVAARCGLLTQSYQFWREGTEIDLGADPHSCDDGIHAAATGAIWLGAIQGFAGVSVRDGELHLNPALPEQWQQLSFPLFWQGCELQVTLDAQRIAIRTSAPVSLRLNGQLITVAEESVFCLGDFILPFNGTATKHQEDE”: under setting [1], the “total protein half-life in vivo” value was determined as 5.63 h.
